Data from patent US20130089499A1 (NATIONAL RESEARCH COUNCIL OF CANADA, published 2013).
Blank lines part the entries; values can stand above or below the molecule they belong to.

Legend:
[1] = molecular target: human myostatin (GDF8) (human, UniProt O14793 267-375); experiment: cell-based or functional assay
[2] = molecular target: T1, TGF-β2 (UniProt P61812 303-414); experiment: SPR (Biacore), 100 nM injected over immobilised TGF-β2
T1 sequence (looked up): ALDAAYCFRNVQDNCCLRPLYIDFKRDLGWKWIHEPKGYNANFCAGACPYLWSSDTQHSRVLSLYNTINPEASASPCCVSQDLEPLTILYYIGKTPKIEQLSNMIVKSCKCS

[3] = molecular target: T2, TGF-β1 (UniProt P01137 279-390); experiment: SPR (Biacore) solution competition: binder pre-incubated with 5 nM TGF-β1, injected over immobilised 1D11 anti-TGF-β antibody; plateau response measures free TGF-β1
Procedure: (§1) SPR data was generated using a Biacore 3000 instrument (G.E. Healthcare Inc.) using HBS as running buffer. […] A twenty-fold stock concentration of TGF-β (100 nM in 10 mM acetic acid) was used. […] Blank injection samples were made from 10 μl 10 mM acetic acid mixed with 190 uL HBS. […] All sensogram analysis was carried out using Biacore BiaEvaluation software v4.1 (G.E. Healthcare Inc.).

[4] = molecular target: T2, TGF-β1; experiment: SPR indirect binding assay: binder titrated against 5 nM TGF-β1, free TGF-β1 measured on the 1D11 surface
Procedure: as §1

[5] = molecular target: T2, TGF-β1; experiment: SPR (Biacore) solution competition: trap coinjected with 5 nM TGF-β1 over immobilised 1D11 anti-TGF-β antibody; plateau response measures free TGF-β1
[6] = molecular target: T2, TGF-β1; experiment: cell-based or functional assay
[7] = molecular target: TGF-β1 or -β3; experiment: SPR (Biacore) solution competition: binder pre-incubated with 5 nM TGF-β (β1 or β3, isoform not named on the sheet), injected over immobilised 1D11 anti-TGF-β antibody; plateau response measures free TGF-β

B1: N-His TβRII monomer (receptor)
chain: APMAEGGGQNHHHHHHHHGGSFNPRIPPHVQKSVNNDMIVTDNNGAVKFPQLCKFCDVRFSTCDNQKSCMSNCSITSICEKPQEVCVAVWRKNDENITLETVCHDPKLPYHDFILEDAASPKCIMKEKKKPGETFFMCSCSSDECNDNIIFSEEYNTSNPD
notes: Single TβRII ectodomain with an N-terminal His tag, produced in 293 cells; also called monomeric N-His TβRII; N-His TβRII (293 cells)
binding result [2]: no binding (tested: 100 nM)
IC50 [3]: 8.1 nM
fold higher IC50 than N-His (TβRII)^2 [4]: ~8 fold

B3: N-His (TβRIIb)^2 (designed binder)
chain: APMAEGGGQNHHHHHHHHGGSFNPRIPPHVQKSVNNDMIVTDNNGAVKFPQLCKFCDVRFSTCDNQKSCMSNCSITSICEKPQEVCVAVWRKNDENITLETVCHDPKLPYHDFILEDAASPKCIMKEKKKPGETFFMCSCSSDECNDNIIFSEEYNTSNPDIPPHVQKSDVEMEAQKDEIICPSCNRTAHPLRHINNDMIVTDNNGAVKFPQLCKFCDVRFSTCDNQKSCMSNCSITSICEKPQEVCVAVWRKNDENITLETVCHDPKLPYHDFILEDAASPKCIMKEKKKPGETFFMCSCSSDECNDNIIFSEEYNTSNPD
notes: TβRII ectodomain followed by a TβRIIb ectodomain, giving a 60-residue linker, with an N-terminal His tag; also called (TβRII)^2 trap having a 60 amino acid linker
IC50 [5]: 0.6 nM
IC50, neutralization of TGFβ1 (Mv1Lu luciferase reporter cells) [6]: 0.04 nM
fold more potent than N-His (TβRII)^2 in neutralization of TGFβ1 [6]: 4 fold

B4: N-His (TβRII)^2 (designed binder)
chain: APMAEGGGQNHHHHHHHHGGSFNPRIPPHVQKSVNNDMIVTDNNGAVKFPQLCKFCDVRFSTCDNQKSCMSNCSITSICEKPQEVCVAVWRKNDENITLETVCHDPKLPYHDFILEDAASPKCIMKEKKKPGETFFMCSCSSDECNDNIIFSEEYNTSNPDIPPHVQKSVNNDMIVTDNNGAVKFPQLCKFCDVRFSTCDNQKSCMSNCSITSICEKPQEVCVAVWRKNDENITLETVCHDPKLPYHDFILEDAASPKCIMKEKKKPGETFFMCSCSSDECNDNIIFSEEYNTSNPD
notes: Two human TβRII ectodomains in tandem with the native 35-residue linker (IPP restored), an N-terminal 8xHis tag and a thrombin site; also called modified N-His (TβRII)^2; bivalent N-His (TβRII)^2
IC50 [5]: 1.4 nM
IC50, neutralization assay in Mv1Lu luciferase reporter cells [6]: < 1 nM
IC50, neutralization of TGFβ1 (Mv1Lu luciferase reporter cells) [6]: 0.16 nM
IC50 [4]: 1.1 nM

B5: Prototype (TβRII)^2 (designed binder)
chain: TIPPEQKLISEEDLLHVQKSVNNDMIVTDNNGAVKFPQLCKFCDVRFSTCDNQKSCMSNCSITSICEKPQEVCVAVWRKNDENITLETVCHDPKLPYHDFILEDAASPKCIMKEKKKPGETFFMCSCSSDECNDNIIFSEEYNTSNPDGGRHVQKSVNNDMIVTDNNGAVKFPQLCKFCDVRFSTCDNQKSCMSNCSITSICEKPQEVCVAVWRKNDENITLETVCHDPKLPYHDFILEDAASPKCIMKEKKKPGETFFMCSCSSDECNDNIIFSEEYNTSNPDHHHHHH
IC50 [7]: 7.6 nM
IC50, inhibition of TGF-β signaling in Mv1Lu luciferase reporter cells [6]: 0.58 nM

The next lines start with the values.

IC50, neutralization of myostatin in A204 cells with (CAGA)12-luciferase reporter [1]: 0.38 nM
Molecule: ActRIIB monomer (receptor)

IC50, neutralization of myostatin in A204 cells with (CAGA)12-luciferase reporter [1]: 0.1 nM
fold more potent than dimeric ActRIIb-Fc in neutralization of myostatin [1]: 10 fold
B2: (ActRIIB)^2 (designed binder)
chain: SGSEQKLISEEDLLGRGEAETRECIYYNANWELERTNQSGLERCEGEQDKRLHCYASWRNSSGTIELVKKGCWLDDFNCYDRQECVATEENPQVYFCCCEGNFCNERFTHLPEAGGPEVTYEPPPTAPTSGRGEAETRECIYYNANWELERTNQSGLERCEGEQDKRLHCYASWRNSSGTIELVKKGCWLDDFNCYDRQECVATEENPQVYFCCCEGNFCNERFTHLPEAGGPEVTYEPPPTAPTHHHHHH
